Source: paper PMC6317306

Target: FLAG-Cep85-6D (UniProt Q6P2H3)
Assay: co-IP

percent reduction of affinity against Nek2A-4A	Binder
50%	HA-Nek2A (enzyme) MPSRAEDYEVLYTIGTGSYGRCQKIRRKSDGKILVWKELDYGSMTEAEKQMLVSEVNLLRELKHPNIVRYYDRIIDRTNTTLYIVMEYCEGGDLASVITKGTKERQYLDEEFVLRVMTQLTLALKECHRRSDGGHTVLHRDLKPANVFLDGKQNVKLGDFGLARILNHDTSFAKTFVGTPYYMSPEQMNRMSYNEKSDIWSLGCLLYELCALMPPFTAFSQKELAGKIREGKFRRIPYRYSDELNEIITRMLNLKDYHRPSVEEILENPLIADLVADEQRRNLERRGRQLGEPEKSQDSSPVLSELKLKEIQLQERERALKAREERLEQKEQELCVRERLAEDKLARAENLLKNYSLLKERKFLSLASNPELLNLPSSVIKKKVHFSGESKENIMRSENSESQLTSKSKCKDLKKRLHAAQLRAQALSDIEKNYQLKSRQILGMR
> 60%	HA-Nek2A-4D (enzyme) MPSRAEDYEVLYTIGTGSYGRCQKIRRKSDGKILVWKELDYGSMTEAEKQMLVSEVNLLRELKHPNIVRYYDRIIDRTNTTLYIVMEYCEGGDLASVITKGTKERQYLDEEFVLRVMTQLTLALKECHRRSDGGHTVLHRDLKPANVFLDGKQNVKLGDFGLARILNHDTSFAKTFVGTPYYMSPEQMNRMSYNEKSDIWSLGCLLYELCALMPPFTAFSQKELAGKIREGKFRRIPYRYSDELNEIITRMLNLKDYHRPSVEEILENPLIADLVADEQRRNLERRGRQLGEPEKSQDSSPVLSELKLKEIQLQERERALKAREERLEQKEQELCVRERLAEDKLARAENLLKNYDLLKERKFLDLASNPELLNLPSSVIKKKVHFSGESKENIMRSENSESQLTDKSKCKDLKKRLHAAQLRAQALSDIEKNYQLKDRQILGMR
